The DeepSol protein solubility set

test: soluble on expression in E. coli; label from the status in PepcDB or PDB records

Sequence	soluble on expression in E. coli
MSLSTDTAPAQTMHAGRLIARRLKASGIDTVFTLSGGHLFSIYDGCREEGIRLIDTRHEQTAAFAAEGWSKVTRVPGVAALTAGPGITNGMSAMAAAQQNQSPLVVLGGRAPALRWGMGSLQEIDHVPFVAPVARFAATAQSAENAGLLVDQALQAAVSAPSGVAFVDFPMDHAFSMSSDNGRPGALTELPAGPTPAGDALDRAAGLLSTAQRPVIMAGTNVWWGHAEAALLRLVEERHIPVLMNGMARGVVPADHRLAFSRARSKALGEADVALIVGVPMDFRLGFGGVFGSTTQLIVADRVEPAREHPRPVAAGLYGDLTATLSALAGSGGTDHQGWIEELATAETMARDLEKAELVDDRIPLHPMRVYAELAALLERDALVVIDAGDFGSYAGRMIDSYLPGCWLDSGPFGCLGSGPGYALAAKLARPQRQVVLLQGDGAFGFSGMEWDTLVRHNVAVVSVIGNNGIWGLEKHPMEALYGYSVVAELRPGTRYDEVVRALGGHGELVSVPAELRPALERAFASGLPAVVNVLTDPSVAYPRRSNEGHHHHHH	not soluble
MSLSTPSKAMAAMEFNTTSVNKSSAIDSNNTKKEQLSDVNDISFTDHGYYIIPSLDTLNGMPLVELRSVNGLVVGHKDYGKVEFLEPVDLVNVPLNSICDKLIHFEPKTCILYPNSPIKPKKGEGMNVPAKITCFDCFPINKSTREPILDANSTLLKKHIDKLKKVPGTKFVSYEEKTGKYVFTVDEPILEGHHHHHH	soluble
MSLSVADIAYVVFNHVDLLEAERFYTDFGLTVAYRNEFEVAFRPAMERSYCYVARKADKPGLVSIGLSAASQEDLVVAAQFPEASPIQAIERPGGGQVVRLTSPDGVNFELVHGIDVYPARPVRDALSINTGIVKTRHGQWQRPELEPASILRLGHVALLTGDFKTNAQWLRSRFGFMPSDVLFADAPENQVGAFFHCTGGNPWTDHHTLALFPSDGSRMHHCSFEIQDLDAQFLGNKWLASRGWKPGWGVGRHILGSQIFDYWFDPAGNLVEHFTDGDLIQAGAAPGMHPLDDDALAMWGPPLTASKFVAMAAREGHHHHHH	soluble
MSLSVKRVLRNTIRKEKEENRVTEPLTETPELSAKYAWFFDLDGTLAEIKPHPDQVVVPDTILQGLQLLATASDGALALISGRSMVELDALAKPYRFPLAGVHGAERRDINGKTHIVHLPDAIARDISVQLHTVIAQYPGAELEAKGMAFALHYRQAPQHEDALMTLAQRITQIWPQMALQQGKCVVEIKPKGTSKGEAIAAFMQEAPFIGRTPVFLGDDLTDESGFAVVNRLGGMSVKIGTGATQASWRLAGVPDVWSWLEMITTALQQKRENNRSDDYESFSRSIEGHHHHHH	soluble
MSLSVLNAKECVSPITRSVKYHQQSAEIRALQLQSYKMAKMALDNNLKLVKDKKPAVILDLDETVLNTFDYAGYLIKNCIKYTPETWDKFEKEGSLTLIPGALDFLEYANSKGVKIFYISNRTQKNKAFTLKTLKSFKLPQVSEESVLLKEKGKPKAVRRELVAKDYAIVLQVGDTLHDFDAIFAKDAKNSQEQRAKVLQNAQKFGTEWIILPNSLYGTWEDEPIKAWQNKKEGHHHHHH	soluble
MSLSVPAAAPEDSVISAEETTTGSAVTNVQFSNEQVITENGKYKVSKLAPSLSFLPSNVELCCSVDAKSGYALCCDTDNVYVWPFLSSETHPSFVRIPLHDEEYESWSRPPLCCFTWPSVLERDLKSSPGLFLVNSRSGDIQFYEDVDTVSQVASFLTQTKRHKSVLKLRDGEYVENLINAEPAGILLSTNYGRVEFCTIRDANGKPFVSLKQTIIKCQVGIFSSMSKSKRVVSLKLGEISGKGERIVSILTQGGRYQVWNLSSVGNCYKKIDLNVQSEISQAVLEHFPLATSTLKLLDCHPLSGDSDAYLFLSFLAESNETHYLLSTIIVDEDTNSFAIFSTYRLNTYTRPLSDEFAPRLIVPTAYTKEHLPITSVYTLFSDAAVLTQTSSKLDSNYPFKRKWEDIIRFNKDMKVLGYDCNSSSLYITDGRTCALKLETFEKYENSDFQEIRFIKSHVDQYVYFGGQSTDEGHHHHHH	soluble
MSLSVRFAGMATCVPKRVVSNLTDCKPQIRPERERLVRNIGIELRRLTQEWQCFSDLAFDAASKLIESLEWKLEEIDALIVVTQSPDYLAPATAIILQDRLGLPHTTLAFDVNLGCSGYPFGLHLLGSLISAGGIKKGLVLVGDSGAQLNDPIFSDAGTATAMEFCADAPPMYFDLNSDGSGHKAIILPVGGHREPVGIQHLVPFRENENDHWHRAIDLQLDGTAVLSFSTQRVPPAVEKLLEYANASKDEVDYFIFHQANRMINETIRKKLALPVEKVPSTLRDFGNTSGASLPVTMTARINKQLEEGSKRLVLSGFGIGLSWGTCLVDIQGAKFPDLIESEGHHHHHH	not soluble
MSLSVTRENFDEWMVPVYVPAPFIPVRGEGSRLWDQQGKEYIDFAGGIAVNALGHAHPALREALNEQANRFWHIGNGYTNEPALRLAKKLIDATFAERVFFCNSGAEANEAALKLARKYAHDRVGNHKSGIVAFKNAFHGRTLFTVSAGGQPTYSQDFAPLPPDIRHAAYNDLNSASALIDDNTCAVIVEPVQGEGGVIPATKAFLQGLRELCDRHQALLIFDEVQTGVGRTGELYAYMHYGVTPDILTTAKALGGGFPIGAMLTTQDYASVMTPGTHGTTYGGNPLATAVAGKVLDIINTPEMQNGVRQRHDAFIERLNTLNVRFGMFSEIRGLGLLLGCVLQTEFAGKAKLIAQEAAKAGVMVLIAGGDVVRFAPALNVSDEEIATGLDRFALACERLQTGGVPCG	not soluble
MSLSYGVKLHVWGERALFTRPEMKVERVSYDIITPSAARGILEAIHWKPAIRWMVDSIQVLKPIRFESIRRNEVGGKLSAASVSKAIKAGRTDTLVSYVEEDRQQRAATLLRDVGYVIAAHFELTDKAGADDNVGKHLDIFNRRARRGQCFQAPCLGTREFPASFALIEDDAAMPAADATLAGERDLGWMLHDIDFADGMTPRFFRARMVDGQVEVPAPENGGVRAEGHHHHHH	soluble
MSLSYLPGTTFEGQWESLYFGNNIKERLYSYATISLKIARFKQTGDSNQEDITTLITNNKLLLVHGPPGTGKTTLCKALCQKLSVRREFSDGSDTIDTNYKGIIIELSCARIFSKWFGESSKNISIVFKDIEELLKVNEGRGIFICLLIDEVEAIASSRTNLSSRNESTDGIRVVNTLLTQLDRLKKYHNFLALATSNLLDSLDDAFVDRADGVFYVGNPTAEGILHILKVCIEEMITSGIILFHARSTGVKFFNKYQDILRKIAIKCSVCFFLLFYFYDSFSFFPSEGHHHHHH	soluble
MSLTATAPCPYACGLCSLHENHSALVNIVVTNRCDLSCFYCFFYAERAGYIYEPSIEQIKFMVRQVARQRQGSDVHVNIQITGGEPTVREDLVDVVKAIREAGAHYIQLNTNGINVARRYLDNPPGAIDYVRSLREAGVSVVYMSFDGVTPKVNWKNHYEAPFALKAFQEGGLDNVVLVPTVIRTINDHEVGDIIRFAGKHIDVVRGVNFQPVSLTGMMRKHERERMRITIPDVIKRIEEQTDGQIPMDAWYPVPVVAKFVKAIDALTGKLYDTLSNHPACGSATYVFALERDRYGVPRRFLPITEVIDVEGFIEFLDEERIKLEHNSGRLSRLKVAAEIVWRARRFVDFDREGHHHHHH	not soluble
MSLTDSKYISIKGARVNNLKNIDVNIPRNKLVVITGLSGSGKSSLAFDTLYAEGQRRYVESLSSYARQFLGRMSKPECDFIKGIPPAIAIEQKVNSRNPRSTVGTSTEIYEYLRLLYARVGKTYSPVSGEEVKKHSIEDIVNCMLSYPEGTRYTVLTQIYLHDGRTLEQQLEIDRKQGFNRLEVNGEMVRIDEYAAGKEDVVYLLVDRMTAAKSKDAISRLTDSAETAMYEGDGMCMLRFYQPDGTTRLHTFSTKFEADGMTFEEPNDQMFSFNSPIGACPVCEGFGKVIGIDEHLVVPNRSLSVYDGAIVCWRGEKMGEWREELIHNAEKFNFPIFTPYYELTDEQRRVLWEGNQYFHGINDFFKMLEENQYKIQYRVMLARYRGKTLCPKCHGTRLKPEAGYVRVGGKNISELVDLPITELQKFFDSLTLNEHDQAVARRILTEINSRIRFLIDVGLGYLTLNRLSNSLSGGESQRINLATSLGSSLVGSLYILDEPSIGLHSRDTDRLVHVLRQLQQLGNTVVVVEHDEEIIRAADYIIDIGPNAGRLGGQVVYEGDMKDLKKGSNSYTVKYLLGEETIPVPEHRRPWNNYIEIKGARENNLKGVDARFPLNVMTVVTGVSGSGKSTLVRDIFYRALKRELDECSERPGEFVSIEGDLRNLRNVEFVDQNPIGKSSRSNPVTYIKAYDEIRKLWADQPLAKQMGYTAGHFSFNNEGGRCEECKGDGTITVEMQFMADLVLECESCHGKRFKADTLEVKFQDKNIYDILEMTVNQAIEFFTEHGQKKVVKKLIPLQDVGLGYIKLGQSSSTLSGGENQRVKLAYYLSQEKADPTLFIFDEPTTGLHFHDIRKLLDAFDALIRRGHSIVIIEHNMDVIKCADYVIDLGPEGGDKGGNIVATGTPEEVAACAASYTGQFLQEKLNHLEGHHHHHH	soluble
MSLTEEQLLFRIALTHVKGVGSVLARQLLSAMGSPEAIFSDRKELVQRLPKAPRRLLDAIFSPSVMEEARRKLDQALKAGLNMYFITDDNYPYRLKECVDAPILLYSKGNVDLSPRRVLSIVGTRNITAYGRTATERIVSGLAETIPDLLIVSGLAYGVDVAAHKAALDNGLPTVAVLAHGLDRIYPSGHRSIAMEMLRNGGLLTDYPMGTEPERFNFVGRNRIVAGLSDATLVIESAEKGGSLITAGLAFGYNREVLALPGRATDSRSAGCNALIRDQKAALVSSAQDVLTLLDWSSTIDAKPQTEGHHHHHH	soluble
MSLTEFPGIVKEYEAITRYCGFNSIEAGKTMGLSPYGEPNPEIPPMFVNGFGNRNLFKPNYPNGAYVIEDRYKIIRDDYISHNGEVGTGEYTQVQKDLAYAIQKESEDQMCALIQKAHEMTGEKNIVICGGYGLNCVANYKFKQRFPNLNIYVEPISHDGGTSMGGAYHVYYNDYVKTGKESRKVEPPKTIYYGPQYDPDTYLNYIHEYPSAKVTDASYDSVARLIREGNIVTIFQGRSEAGPRALGNRSILFDPTIKDGKDIVNSVKHREFFRPFACSILADKVHDWFDLAGMDDSPSMMYAVDALPGVAEKIPSVIHVDNTCRIQTVTKEQNEHYYNLISAFEKLSNTPILFNTSFNLGGDPLVEDIDDALDTLSTSDINYMYLPEIQKLVELKTREMQDTRQQPINEGHHHHHH	soluble
MSLTELPKEFLEDIEEILKDEYDDFIKSYEESKTTGLRINTLKIDKKKLFDLELFDLNQIPWAEEGFYYDDKIDRPGRNPLHEAGAYYLQEPSAMSVIPKADIKEGEKVLDMCAAPGGKSTYILSKLNDTGLLVSNEINASRIKALGENLERFGARNCIITNTDSNSLRKTFNGYFDKVIIDAPCSGQGMFRKDEVAISDWSYAKVVECQSIQKEIIRDGYKMLKKDGILIYSTCTFSREENEHVINEFISEYPHAELIEMERLWPHKIKGEGHFVAKIKKLEEEECNVKELKIKNLDKEIKDYREFEKKFLKVDFYSNKKNKFYLRGENLYLLPEIYPDTKKLKVLRYGLHLGVLKKNRFEPSHALSHYLKVEDVKNVENFSVQSESILKYLKGDVVNSNDSRGWVLVSVEGIPLGWGKESSGVIKNHYPKGLRKVEGHHHHHH	soluble
MSLTGGVISGLGKGTITSSIGHILKDSGIKVSAVKIDPYINYDAGTMNPYQHGEVFVLDDGGEVDLDLGNYERFMNINLSRDNNITTGKVYLEVIQKERHGDYLGKTVQIIPHITDEIKRRIREVARTSGADVVLIEVGGTVGDIESMPFLEALRQLKREEQNVVFAHVTLVPEIGPTMEQKTKPTQHSVKALREIGIQPDIIFARSKQKLTEETKSRISLFTDVPVEGIISVSDVENVYLLPQMMVNEGLITRLSKLLNMNIEYRDSWTSYAENIRHPRDRVKVAIVGKYVDLHDAYISHKEAFSHVTGNTGIAVDIMWIDSEKVKNDQSVLSEADAILIPGGFGYRGVEGKIAATRYAMENGVPFLGICLGFQVAVIAVARYVLGLDGANSTEFDEKTKYPVVDILPEQRGVKDMGGTMRLGSKKVVIKKGTLAHRIYGADVIYERHRHRYEVNPDYIDMIEKAGFKFSATDEEGIRMEILERPGDESFIATQYHSEFKSRPLDPSKVHLHLVEQALIFKHRRMGENHEGYATAASSQGQEGHHHHHH	soluble
